Target: T1, IFNα2b[Tn]-FCHASE
T1 chain: VGVTETP

B1: CgtBOH4384 (FL, N-terminal MalE) (protein)
chain: MFKISIILPTYNVEQYIARAIESCINQTFKDIEIIVVDDCGNDNSINIAKEYSKKDKRIKIIHNEKNLGLLRARYEGVKVANSPYIMFLDPDDYLELNACEECIKILDEQDEVDLVFFNAIVESNVISYKKFDFNSGFYSKKEFVKKIIAKKNLYWTMWGKLIRKKLYLEAFASLRLEKDVKINMAEDVLLYYPMLSQAQKIAYMNCNLYHYVPNNNSICNTKNEVLVKNNIQELQLVLNYLRQNYILNKYCSVLYVLIKYLLYIQIYKIKRTKLMVTLLAKINILTLKILFKYKKFLKQC
In the case of B1, the Specific Activity (mU/mg) on 1 mM IFNα2b[Tn]-FCHASE is reported as 83.5 mU/mg.

B2: CgtB11168 (FL, N-terminal MalE) (protein)
chain: MSQISIILPTYNVEKYIARALESCINQTFKDIEIIVVDDCGNDKSIDIAKEYASKDDRIKIIHNEENLKLLRARYEGAKVATSPYIMFLDSDDYLELNACEECIKILDMGGGGKIDLLCFEAFITNAKKSIKKLNIKQGKYNNKEFTMQILKTKNPFWTMWAKIIKKDIYLKAFNMLNLKKEIKINMAEDALLYYPLTILSNEIFYLTQPLYTQHVNSNSITNNINSLEANIQEHKIVLNVLKSIKNKKTPLYFLIIYLLKIQLLKYEQNFNKRNINLIYYKINILYQKYQFKWKKFLYNLIP
In the case of B2, the “conversion of the glycopeptide acceptor by capillary electrophoresis” value is reported as “ND^2 (For the CgtB enzyme from the 11168 only very low-level conversion was detectable on the glycopeptide acceptor by capillary electrophoresis <5%.)”.

— patent US20110111454
